Experimental findings from paper PMC6764996, “Molecular basis of microhomology-mediated end-joining by purified full-length Polθ” are described below.

The series concerns the target Polθ (full-length DNA polymerase theta) (human, UniProt O75417 1-2590). Briefly: fluorescence anisotropy; 1 mM ATP, 10 mM MgCl2; KD printed only in figure; significantly lower than Polθ-pol and Polθ-hel; Anisotropy: 25 mM Tris-HCl pH 8.8, 1 mM DTT, 0.01% NP-40, 10 mM MgCl2, 10% glycerol, 0.1 mg/ml BSA, 1 mM ATP, 30 mM NaCl, room temp, at least 30 min, 10 nM FAM-ssDNA. As to conditions: protein: recombinant; tags: 3xFLAG (N-terminal); label: 5' FAM. For orientation: Fluorescence polarisation rises when a labelled molecule tumbles more slowly, as on binding a larger partner.

Sequence of Polθ (full-length DNA polymerase theta) (O75417 whole entry): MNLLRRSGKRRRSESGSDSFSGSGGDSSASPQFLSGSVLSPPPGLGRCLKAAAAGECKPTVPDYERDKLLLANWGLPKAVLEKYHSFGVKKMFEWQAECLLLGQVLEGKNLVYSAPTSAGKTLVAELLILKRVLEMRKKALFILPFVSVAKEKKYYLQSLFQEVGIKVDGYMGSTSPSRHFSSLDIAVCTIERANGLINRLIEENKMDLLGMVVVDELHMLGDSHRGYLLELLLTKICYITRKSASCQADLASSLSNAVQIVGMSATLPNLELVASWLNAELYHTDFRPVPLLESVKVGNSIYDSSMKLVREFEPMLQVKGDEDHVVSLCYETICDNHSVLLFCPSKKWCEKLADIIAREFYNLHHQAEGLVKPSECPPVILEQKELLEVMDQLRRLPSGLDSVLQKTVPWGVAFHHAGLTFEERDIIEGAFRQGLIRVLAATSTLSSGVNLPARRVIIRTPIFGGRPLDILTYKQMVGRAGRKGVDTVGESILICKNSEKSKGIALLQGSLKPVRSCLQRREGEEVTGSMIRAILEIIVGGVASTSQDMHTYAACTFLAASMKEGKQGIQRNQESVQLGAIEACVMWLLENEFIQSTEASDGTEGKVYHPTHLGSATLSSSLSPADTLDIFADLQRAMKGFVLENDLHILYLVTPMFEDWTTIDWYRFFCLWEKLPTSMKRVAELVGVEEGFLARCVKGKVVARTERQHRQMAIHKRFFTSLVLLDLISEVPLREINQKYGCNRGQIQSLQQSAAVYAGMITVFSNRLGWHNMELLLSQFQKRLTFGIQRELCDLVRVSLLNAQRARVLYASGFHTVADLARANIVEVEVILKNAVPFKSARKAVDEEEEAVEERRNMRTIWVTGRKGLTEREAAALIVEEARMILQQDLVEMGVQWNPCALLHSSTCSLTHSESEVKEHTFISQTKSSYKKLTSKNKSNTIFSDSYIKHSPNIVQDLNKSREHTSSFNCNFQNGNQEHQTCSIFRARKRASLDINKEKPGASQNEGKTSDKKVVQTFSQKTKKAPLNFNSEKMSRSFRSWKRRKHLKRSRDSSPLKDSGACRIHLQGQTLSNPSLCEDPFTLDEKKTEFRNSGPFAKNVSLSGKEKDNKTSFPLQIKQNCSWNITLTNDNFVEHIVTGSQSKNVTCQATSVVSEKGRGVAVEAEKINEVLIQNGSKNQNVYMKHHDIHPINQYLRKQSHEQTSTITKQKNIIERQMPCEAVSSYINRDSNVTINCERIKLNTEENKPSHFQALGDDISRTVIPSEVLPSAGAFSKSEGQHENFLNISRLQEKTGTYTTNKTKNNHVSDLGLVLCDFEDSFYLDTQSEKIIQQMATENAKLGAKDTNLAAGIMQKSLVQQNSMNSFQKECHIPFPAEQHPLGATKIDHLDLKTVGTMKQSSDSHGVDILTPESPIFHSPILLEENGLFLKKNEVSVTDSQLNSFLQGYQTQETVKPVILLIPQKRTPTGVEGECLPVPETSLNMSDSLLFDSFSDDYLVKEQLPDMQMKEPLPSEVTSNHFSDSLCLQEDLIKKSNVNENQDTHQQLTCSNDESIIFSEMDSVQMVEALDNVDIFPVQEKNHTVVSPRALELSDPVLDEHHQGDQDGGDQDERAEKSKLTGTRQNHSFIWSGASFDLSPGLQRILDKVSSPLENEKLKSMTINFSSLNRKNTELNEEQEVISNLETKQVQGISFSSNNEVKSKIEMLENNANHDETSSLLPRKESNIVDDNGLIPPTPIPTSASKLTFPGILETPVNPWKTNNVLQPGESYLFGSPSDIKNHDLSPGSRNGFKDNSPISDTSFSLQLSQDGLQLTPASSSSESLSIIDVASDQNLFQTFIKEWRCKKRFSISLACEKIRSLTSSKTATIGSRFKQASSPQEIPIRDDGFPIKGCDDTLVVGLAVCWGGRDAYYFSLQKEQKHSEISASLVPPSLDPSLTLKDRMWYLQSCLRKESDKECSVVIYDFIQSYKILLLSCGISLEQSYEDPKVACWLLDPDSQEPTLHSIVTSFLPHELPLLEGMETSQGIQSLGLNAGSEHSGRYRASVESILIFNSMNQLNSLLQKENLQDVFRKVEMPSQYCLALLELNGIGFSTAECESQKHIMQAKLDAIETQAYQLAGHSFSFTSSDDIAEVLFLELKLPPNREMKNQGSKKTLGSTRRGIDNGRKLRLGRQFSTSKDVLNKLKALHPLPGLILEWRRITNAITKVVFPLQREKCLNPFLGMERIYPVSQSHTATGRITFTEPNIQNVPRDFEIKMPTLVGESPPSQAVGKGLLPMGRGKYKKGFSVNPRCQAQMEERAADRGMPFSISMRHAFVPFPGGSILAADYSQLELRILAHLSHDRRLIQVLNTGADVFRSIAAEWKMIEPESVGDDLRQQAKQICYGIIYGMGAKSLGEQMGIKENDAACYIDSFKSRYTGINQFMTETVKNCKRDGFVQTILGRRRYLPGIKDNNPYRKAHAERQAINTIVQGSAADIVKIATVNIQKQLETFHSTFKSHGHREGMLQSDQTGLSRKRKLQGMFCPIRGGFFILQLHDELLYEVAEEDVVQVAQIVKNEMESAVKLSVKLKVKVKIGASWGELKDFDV

Turning to TTTTTTTTTTTTTTTTTTTTTTTTTTTTT (ssDNA) [RP316FAM5 (29 nt ssDNA)], the binding result is given as “binds”.
